Experimental data taken from paper PMC7002343.

Test system: EspM (lysate) (Mycobacterium marinum M (ATCC BAA-535))
Test: DNA pull-down, LC-MS/MS
Conditions: 5' BiotinTEG on both primers; EspM EMSA: 10 mM Tris-HCl pH 8.0, 40 mM KCl, 2.5 mM DTT, 0.25% Tween-20, 0.02 mg/mL salmon sperm DNA (listed as 0.5x binding buffer), ~70 ng probe, 20-25 min …

## whiB6 promoter bait (1 kb)
  binding signal (fold enrichment over rpoA bait (N5)): > 64
